Residue numbers refer to the chain shown, from its start.
How the values were obtained:
[1] = biological target: T1, Mouse GFRAL (mGFRAL) on HEK293 reporter cells with mouse RET (mouse, UniProt Q6SJE0 20-393); assay: cell-based or functional assay
T1 sequence (looked up): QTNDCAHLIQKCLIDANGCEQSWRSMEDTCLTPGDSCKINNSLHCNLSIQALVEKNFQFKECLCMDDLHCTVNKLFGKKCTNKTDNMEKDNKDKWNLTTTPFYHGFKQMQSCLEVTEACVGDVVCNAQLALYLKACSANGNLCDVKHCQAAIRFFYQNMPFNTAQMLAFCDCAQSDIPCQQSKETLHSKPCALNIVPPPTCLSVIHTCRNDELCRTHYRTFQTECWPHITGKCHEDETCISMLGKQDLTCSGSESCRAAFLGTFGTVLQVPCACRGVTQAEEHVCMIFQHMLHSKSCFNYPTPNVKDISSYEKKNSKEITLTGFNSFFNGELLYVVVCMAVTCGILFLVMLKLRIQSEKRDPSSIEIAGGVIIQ

[2] = biological target: T2, Human GFRAL (hGFRAL) on HEK293 reporter cells with human RET (human, UniProt Q6UXV0 19-394); assay: cell-based or functional assay
T2 sequence (looked up): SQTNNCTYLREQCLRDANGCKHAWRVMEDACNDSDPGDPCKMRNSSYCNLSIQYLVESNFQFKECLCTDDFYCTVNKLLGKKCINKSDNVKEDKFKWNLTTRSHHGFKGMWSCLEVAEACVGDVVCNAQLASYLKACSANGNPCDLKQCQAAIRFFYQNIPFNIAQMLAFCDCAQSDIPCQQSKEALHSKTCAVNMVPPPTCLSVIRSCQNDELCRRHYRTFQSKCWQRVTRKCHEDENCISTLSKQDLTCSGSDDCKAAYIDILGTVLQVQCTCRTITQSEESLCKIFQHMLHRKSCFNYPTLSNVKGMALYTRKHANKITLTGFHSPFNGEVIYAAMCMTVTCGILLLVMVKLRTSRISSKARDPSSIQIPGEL

[3] = biological target: Cynomolgus monkey GFRAL-His protein (cynomolgus monkey); assay: ELISA, antigen coated on plate, purified antibody titrated, HRP anti-mouse IgG detection
Method: (§1) The ELISA assay had the following protocols. Human GFRAL-His protein, cynomolgus monkey GFRAL-His protein, or mouse GFRAL-Fc protein were coated on 96-well plates, and after blocking the wells with PBS/1% BSA solution, the hybridoma supernatant or purified antibodies were added to the reaction wells. After incubation for 1 hour at room temperature, HRP-labeled anti-mouse IgG (Fab region) antibody was added to the reaction wells to incubate for an additional hour at room temperature. After the substrate and stop solution were added successively, the OD₄₅₀ values were read. The OD₄₅₀ values were used to verify and assess the binding ability of the antibodies to the GFRAL proteins.

[4] = biological target: T3, Human GFRAL-His protein (human, UniProt Q6UXV0 19-351); assay: as above
T3 construct: also called human GFRAL-His fusion protein; not shown: His tag
T3 sequence (looked up): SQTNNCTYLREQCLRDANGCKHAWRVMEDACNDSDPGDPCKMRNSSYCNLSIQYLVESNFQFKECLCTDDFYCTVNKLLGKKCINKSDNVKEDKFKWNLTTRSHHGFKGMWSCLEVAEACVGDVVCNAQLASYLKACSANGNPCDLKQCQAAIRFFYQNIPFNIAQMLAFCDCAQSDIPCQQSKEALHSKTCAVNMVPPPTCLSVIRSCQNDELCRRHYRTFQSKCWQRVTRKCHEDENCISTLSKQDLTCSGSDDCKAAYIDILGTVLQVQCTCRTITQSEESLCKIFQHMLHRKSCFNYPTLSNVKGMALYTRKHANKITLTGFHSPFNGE
Method: as §1

[5] = biological target: T4, Human GFRAL protein (Biacore analyte) (human, UniProt Q6UXV0 19-351, limits assumed); assay: Biacore SPR, antibody captured via anti-human Fc on CM5, GFRAL injected, 25 C
T4 construct: also called hGFRAL
T4 sequence (looked up): T3 sequence (looked up)
Method: Binding affinity assays were performed for three antibody strains 168A7, 8E10 and 26D7 based on the Biacore affinity assay. The binding affinities of purified antibodies to human or mouse GFRAL were assessed by measuring the equilibrium dissociation constants (KD). The anti-human Fc antibody was immobilized in the flow cell of the CM5 chip according to the instructions of the amino-coupled kit (catalogue number: BR100050, Cytiva). Purified antibodies (˜300 RU) were captured on flow cells 2, 3 and 4 using flow cell 1 as a reference. Human or mouse GFRAL protein (in an HBS-EP buffer) was then injected at a flow rate of 30 μL/min and the binding kinetics were evaluated at 25° C. The results were as follows (FIGS. 1A-1C, Table 4)

[6] = biological target: T5, Mouse GFRAL-Fc protein (mouse, UniProt Q6SJE0 20-349, limits assumed); assay: ELISA, antigen coated on plate, purified antibody titrated, HRP anti-mouse IgG detection
T5 construct: not shown: Fc
T5 sequence (looked up): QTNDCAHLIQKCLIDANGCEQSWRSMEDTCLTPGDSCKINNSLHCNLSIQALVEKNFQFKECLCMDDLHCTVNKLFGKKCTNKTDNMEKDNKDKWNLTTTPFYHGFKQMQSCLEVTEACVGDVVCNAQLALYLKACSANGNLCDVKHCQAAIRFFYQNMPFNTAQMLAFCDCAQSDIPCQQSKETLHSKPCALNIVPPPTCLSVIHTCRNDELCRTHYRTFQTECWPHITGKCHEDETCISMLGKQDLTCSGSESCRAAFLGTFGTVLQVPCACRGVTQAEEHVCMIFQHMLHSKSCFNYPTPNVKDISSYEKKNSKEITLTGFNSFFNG
Method: as §1

B1: 168A7 (antibody, V domains shown)
VH: QVTLKESGPGILKPSQTLSLTCSFSGFSLSTSDMGVGWIRQPSGKGLEWLAHIWWDDDKYYNPSLKRQLTISKDNSRNQVFLKISSVDTTDTATYYCARLYDYDDEYYFDYWGQGTTLTVSS
VL: DIQMTQTKSSLSASLGDRVTISCRASQDSNNYLNWYQQKPDGTVKLLIYYTSRLHSGVPSRFSGSGSGTDYSLTISNLEHEDIATYFCQQGNTIPWTFGGGTKLEIK
notes: Murine hybridoma antibody, purified
**Q.** Which results are given for B1?
**A.** IC50 (nM), luciferase reporter gene assay, Mouse GFRAL/mouse RET [1]: > 694 nM; IC50 (nM), luciferase reporter gene assay, Human GFRAL/human RET [2]: 3.29 nM; EC50 [3]: 0.09 nM; EC50 [4]: 1.87 nM; Kd [5]: 0.00145 nM; koff [5]: 7.06e-05 s⁻¹

B2: 61G8 (antibody, V domains shown)
VH: QVQLKESGPGLVAPSQSLSITCTVSGFSLTGYGVNWVRQSPGKGLEWLGMIWGDGTTDYNSALKSRLTIRKDNSKSQVFLRMNSLQTDDTARYYCARDPKYNYGYAMDYWGQGTSVTVSS
VL: DIVLTQAPGSLAVSLGQRATISCRASESVDNFGNSFMHWYQQKPGQSPKLLIYRASNLESGIPARFSGSGSRTDFTLTINPVEADDVATYYCQQTNEEPYTFGGGTKLEIE
notes: as for B1
**Q.** What does the source list for B2?
**A.** IC50 (nM), luciferase reporter gene assay, Mouse GFRAL/mouse RET [1]: > 694 nM; IC50 (nM), luciferase reporter gene assay, Human GFRAL/human RET [2]: 11.6 nM; EC50 [3]: 0.08 nM; EC50 [4]: 0.07 nM

B3: 8E10 (antibody, V domains shown)
VH: QVQLQQSGSELVRPGSSVKISCRASGYTFSNYWMNWVKQRPGQGLEWIGQIYPGDDDADYNGKFQGKATLTADKSSSTAYMQLNTLTSEDSAVYFCTRSGRRDFDYWGQGTTLTVSS
VL: NIVLTQSPASLAVSLGQRATISCRASESIDNYGNSFMHWYQQKPGQPPKLLIYRASNLESGVPARFSGSGSRTDFTLTIDPVEADDAATYYCQQNNEDPYTFGGGTKLEIK
notes: as for B1
**Q.** How did the “IC50 (nM), luciferase reporter gene assay, Mouse GFRAL/mouse RET” value (shortened to “IC50 (nM) … Mouse GFRAL/mouse RET”) [1] turn out when B3 was run?
**A.** > 694 nM

**Q.** And the “IC50 (nM), luciferase reporter gene assay, Human GFRAL/human RET” value (“IC50 (nM) … Human GFRAL/human RET” for short) [2]?
**A.** 3.33 nM

**Q.** And the EC50 [3]?
**A.** 0.06 nM

**Q.** And the EC50 [4]?
**A.** 0.05 nM

**Q.** What about the Kd [5] of the same binder?
**A.** 0.0179 nM

**Q.** And the koff [5]?
**A.** 0.000404 s⁻¹

B4: 96C12 (antibody, V domains shown)
VH: RVQLRESGPGLVAPSQSLSITCTVSGFSLTGYSVNWVRQPPGKGLEWLGMIWGDGSTDYNSALKSRLSISKDNSKSQVFLKMNSLQTDDTARYYCARDRDYRYDGGYIMDSWGQGTSVTVSS
VL: B2 VL with A7S, M37L, S47P, I62V, N80S, T95S, E98D, Y100R, E111R
notes: as for B1
**Q.** What does the source list for B4?
**A.** IC50 (nM), luciferase reporter gene assay, Mouse GFRAL/mouse RET [1]: > 694 nM; IC50 (nM), luciferase reporter gene assay, Human GFRAL/human RET [2]: 6.42 nM; EC50 [3]: 0.03 nM; EC50 [4]: 0.03 nM

B5: 174D6 (antibody, V domains shown)
VH: QVQLKQSGPGLVQPSQSLSITCTVSGFSLTSYGVHWVRQSPGKGLEWLGVIWSGGRTDYNAAFISRLNISKDSSKSQVFFKMNSLQADDTAIYYCARKGSSYYGLYYYGMDFWGQGTSVTVSS
VL: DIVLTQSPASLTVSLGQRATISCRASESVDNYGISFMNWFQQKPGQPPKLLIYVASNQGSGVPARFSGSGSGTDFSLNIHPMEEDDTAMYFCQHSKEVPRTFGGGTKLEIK
notes: as for B1
**Q.** Which “IC50 (nM) … Mouse GFRAL/mouse RET” value [1] does the source give for B5 here?
**A.** > 694 nM

**Q.** And the “IC50 (nM) … Human GFRAL/human RET” value [2]?
**A.** 104 nM

**Q.** What about the EC50 [6] of the same binder?
**A.** 0.14 nM

**Q.** And the EC50 [3]?
**A.** 0.07 nM

**Q.** What about the EC50 [4] of the same binder?
**A.** 0.28 nM

B6: 174E10 (antibody, V domains shown)
VH: B5 VH with T57I, N68S, S73N, F112Y
VL: DIVMTQSPSSLTVTAGEKVTMSCKSSQSLLNSGNQKNYLTWYQQKSGQTPKLLIYWASTRESGVPDRFTGSGSGTDFTLTISSVQAEDLAVYYCQNDYGYPLTFGAGTKLELK
notes: as for B1
**Q.** How did the “IC50 (nM) … Mouse GFRAL/mouse RET” value [1] turn out when B6 was run?
**A.** 105 nM

**Q.** What about the “IC50 (nM) … Human GFRAL/human RET” value [2] of the same binder?
**A.** 37.2 nM

**Q.** And the EC50 [6]?
**A.** 0.12 nM

**Q.** What about the EC50 [3] of the same binder?
**A.** 0.06 nM

**Q.** And the EC50 [4]?
**A.** 0.18 nM

B7: 2D4 (antibody, V domains shown)
VH: EVNLVESGGGLVKPGGPLKLSCAASGFTFSSFVMSWVRQTPEKRLEWVASITSGGTTFYPDSVKGRFTISRDNARNILYLQMSNLRSGDTAMYYCARGPPQFSSLSMDYWGQGTSVTVSS
VL: DIVMTQSQKFMSTSVGDRITITCKASQNVGTAVSWFQQKPGQVPKLLIYSASNRYTGVPDRFTGSGSGTEFTLTISNIQSEDLADYFCQQYSSLFTFGSGTKLEIK
notes: as for B1
**Q.** With B7 as the binder, how does the “IC50 (nM) … Mouse GFRAL/mouse RET” value [1] read?
**A.** 2.23 nM

**Q.** And the “IC50 (nM) … Human GFRAL/human RET” value [2]?
**A.** 11.6 nM

**Q.** And the EC50 [6]?
**A.** 0.08 nM

**Q.** What about the EC50 [3] of the same binder?
**A.** 0.1 nM

**Q.** And the EC50 [4]?
**A.** 0.09 nM

— patent US20240368286A1 (SHANGHAI JMT BIO TECHNOLOGY, published 2024)
